Test results taken from patent publication US20240026331.

Biological target: gliadin substrate

B1: unactivated neprosin polypeptide prepared from cells expressing mSP-His-Npr1 (SEQ ID NO: 40) (protein)
chain: HHHHHHRSIQARLANKPKGTIKTIKGDDGEVVDCVDIYKQPAFDHPLLKNHTLQMQPSSYASKVGEYNKLEQPWHKNGECPKGSIPIRRQVITGLPVVKKQFPNLKFAPPSANTNHQYAVIAYFYGNASLQGANATINIWEPNLKNPNGDFSLTQIWISAGSGSSLNTIEAGWQVYPGRTGDSQPRFFIYWTADGYTSTGCYDLTCPGFVQTNNYYAIGMALQPSVYGGQQYELNESIQRDPATGNWWLYLWGTVVGYWPASIYNSITNGADTVEWGGEIYDSSGTGGFHTTTQMGSGHFPTEGYGKASYVRDLQCVDTYGNVISPTANSFQGIAPAPNCYNYQFQQGSSELYLFYGGPGCQ
Question: With B1 as the protein, how does the “proteolytic activity on gliadin substrate (percent of gliadin remaining, RIDASCREEN Gliadin competitive ELISA; pH 4, 37 C, 5 or 30 min)” value read?
Answer: Neprosin preparation activated by treatment at acidic pH displays significantly greater proteolytic activity compared to unactivated neprosin polypeptide prepared from cells expressing mSP-His-Npr1

B2: activated (mature, proteolytically active) neprosin Npr1 prepared by acid treatment (100 mM glycine, pH 2.5) of Npr1 purified from cells expressing … (protein)
chain: SANTNHQYAVIAYFYGNASLQGANATINIWEPNLKNPNGDFSLTQIWISAGSGSSLNTIEAGWQVYPGRTGDSQPRFFIYWTADGYTSTGCYDLTCPGFVQTNNYYAIGMALQPSVYGGQQYELNESIQRDPATGNWWLYLWGTVVGYWPASIYNSITNGADTVEWGGEIYDSSGTGGFHTTTQMGSGHFPTEGYGKASYVRDLQCVDTYGNVISPTANSFQGIAPAPNCYNYQFQQGSSELYLFYGGPGCQ
Question: Which results are given for B2?
Answer: gliadin digestion in buffered SGF (pH 3, 0.8 mg/mL pepsin), RIDASCREEN Gliadin competitive ELISA, 0-60 min: shows equivalent gliadin digestion activity when compared to the enzyme prepared from mammalian CHO cells; proteolytic activity on gliadin substrate (percent of gliadin remaining, RIDASCREEN Gliadin competitive ELISA; pH 4, 37 C, 5 or 30 min): Neprosin preparation activated by treatment at acidic pH displays significantly greater proteolytic activity compared to unactivated neprosin polypeptide prepared from cells expressing mSP-His-Npr1; proteolytic activity on gliadin substrate inside a mouse stomach (enzyme-to-substrate ratio 1:1000 or 1:10,000, 15 min; RIDASCREEN Gliadin competitive ELISA): dose-dependent proteolytic activity of activated WT Npr1 prepared from Npr1 expressed in CHO cells on gliadin substrate inside a mouse stomach

B3: activated WT Npr1 prepared from Npr1 expressed in Pichia cells (pJAG-s1-His-Npr1) (protein)
chain: SANTNHQYAVIAYFYGNASLQGANATINIWEPNLKNPNGDFSLTQIWISAGSGSSLNTIEAGWQVYPGRTGDSQPRFFIYWTADGYTSTGCYDLTCPGFVQTNNYYAIGMALQPSVYGGQQYELNESIQRDPATGNWWLYLWGTVVGYWPASIYNSITNGADTVEWGGEIYDSSGTGGFHTTTQMGSGHFPTEGYGKASYVRDLQCVDTYGNVISPTANSFQGIAPAPNCYNYQFQQGSSELYLFYGGPGCQ
Question: B3 was tested. Which “gliadin digestion in buffered SGF (pH 3, 0.8 mg/mL pepsin), RIDASCREEN Gliadin competitive ELISA, 0-60 min” value did it give?
Answer: The activated neprosin protease from Pichia is proteolytically active on gliadin substrate in SGF and shows equivalent gliadin digestion activity when compared to the enzyme prepared from mammalian CHO cells

B4: activated N216A/N324A Npr1 prepared from pJAG-s1-His-N216A, N324A Npr1 expressed in Pichia cells (SEQ ID NO: 66) (protein)
chain: SANTNHQYAVIAYFYGAASLQGANATINIWEPNLKNPNGDFSLTQIWISAGSGSSLNTIEAGWQVYPGRTGDSQPRFFIYWTADGYTSTGCYDLTCPGFVQTNNYYAIGMALQPSVYGGQQYELAESIQRDPATGNWWLYLWGTVVGYWPASIYNSITNGADTVEWGGEIYDSSGTGGFHTTTQMGSGHFPTEGYGKASYVRDLQCVDTYGNVISPTANSFQGIAPAPNCYNYQFQQGSSELYLFYGGPGCQ
Question: Which “gliadin digestion in buffered SGF (pH 3, 0.8 mg/mL pepsin), RIDASCREEN Gliadin competitive ELISA” value does the source give for B4 here?
Answer: Both N216A Npr1 and N216A/N324A Npr1 digested gliadin in a similar manner as WT Npr1 produced in Pichia

B5: activated N216A Npr1 prepared from pJAG-s1-His-N216A Npr1 expressed in Pichia cells (SEQ ID NO: 60) (protein)
chain: SANTNHQYAVIAYFYGAASLQGANATINIWEPNLKNPNGDFSLTQIWISAGSGSSLNTIEAGWQVYPGRTGDSQPRFFIYWTADGYTSTGCYDLTCPGFVQTNNYYAIGMALQPSVYGGQQYELNESIQRDPATGNWWLYLWGTVVGYWPASIYNSITNGADTVEWGGEIYDSSGTGGFHTTTQMGSGHFPTEGYGKASYVRDLQCVDTYGNVISPTANSFQGIAPAPNCYNYQFQQGSSELYLFYGGPGCQ
Question: For B5, which “gliadin digestion in buffered SGF (pH 3, 0.8 mg/mL pepsin), RIDASCREEN Gliadin competitive ELISA” value is on record?
Answer: Both N216A Npr1 and N216A/N324A Npr1 digested gliadin in a similar manner as WT Npr1 produced in Pichia
